# Molecular target: sc E183-HLA-A2 A245V (HBV | human)
substance,measurement,value
CD8 coreceptor (from UniProt P01732 22-235),reduction of IFN-γ production of human E183 CTL after 3 h with T-REx CHO cells expressing the mutant antigen,25%
